Patent US7879328B2 (Human Genome Sciences, Inc., priority 2000, dated 2011)
Residue numbers refer to the chain shown, from its start.

B1: I082H08: scFv, panel 3, binds membrane-bound B Lymphocyte Stimulator (protein, listed as Homo sapiens)
scFv: EVQLVESGGGLVQPGGSLRLSCAASGFTFSDYGMHWVRQRPGKGLEWIAFIGSDGSNKYYGDTVKGRFTISRDNAKNSLYLQMNSLRAEGTAVYYCARDWDMDVWGQGTMVTVSSGGGGSGGGGSGGGGSSHVILTQPRSVSGSPGQSVTISCTGTSSDVGGYHYVSWYQQHPGKAPRLMIYEVTKRPSGVSNRFSGSKSGNTASLTISGVQAEDEADYYCSSYTSASTVIFGGGTKLTVLG
B2: I079E02: scFv, panel 3, binds membrane-bound B Lymphocyte Stimulator (protein, listed as Homo sapiens)
scFv: QVQLVQSGAEVKKPGSSVKVSCKASGGTFSSYAISWVRQAPGQGLEWMGGIIPIFGTANYAQKFQGRVTITADKSTSTAYMELSSLRSDDTAVYYCARDSGSYYYDAFDIWGKGTMVTVSSGGGGSGGGGSGGGGSDIVMTQSPSTLSASVGDRVTITCRASQGISSWLAWYQQKPGKAPKLLIYAASSLQSGVPSRFSGSGSGTDFTLTISSLQPEDFATYYCQQANSFPLTFGGGTKVEIKR
B3: I008C03: scFv, panel 1, binds soluble and membrane-bound B Lymphocyte Stimulator (protein, listed as Homo sapiens)
scFv: QMQLVRSGGGVVQPGRSLRLSCAASGFTFSSYGMHWVRQAPGKGLEWVSVTYSGGNTNYADSVRGRFTISRDNSKNTLYLQMNSLRAEDTAVYYCAREGSYDILTGYYVGVGRMDVWGKGTLVTVSSGGGGSGGGGSGGGGSSELTQDPAVSVALGQTVRITCQGDSLRSYYTNWFQQKPGQAPLLVVYAKNKRPSGIPDRFSGSSSGNTASLTITGAQAEDEADYYCNSRDSSGNHVVFGGGTKLTVLG
B4: I099D03: scFv, panel 3, binds membrane-bound B Lymphocyte Stimulator (protein, listed as Homo sapiens)
scFv: QVQLVQSGAEVKKPGASVRVSCKSSGYTFTNYGISWVRQAPGQGLEWMGWISNNNGKTYYAQKVQGRVTMTTDTSTSTDYMELRGLRSDDTAIYYCARDNGGGTIGFDYWGRGTLVTVSSGGGGSGGGGSGGGGSAQAVLTQPSSVSGAPGQRVTMSCTGSSSNIGAGYDVHWYQQLPGTAPKLLIYDNTNRPSGVPDRFSGSRSGTSASLAITGLQAEDEADYFCQSYDITLSAVFGTGTKVTVLG
B5: I037E07: scFv, panel 1, binds soluble and membrane-bound B Lymphocyte Stimulator (protein, listed as Homo sapiens)
scFv: QVQLVQSGAEVKKPGASVKVSCKASGYTFTNYGITWVRQAPGQGLEWMGWISAYNGNRNYAQKLQGRVTMTTDTSTSTAYMELRSLRSDDTAVYYCVRDGIDILLVPAALMDVWGRGTMVTVSSGGGGSGGGGSGGGGSQSVLTQPASVSGSPGQSITISCTGTSSDVGGYNYVSWYQQHPGKAPKLMIYEGSKRPSGVSNRFSGSKSGNTASLTISGLQAEDEADYYCSSYTTRSTRVFGGGTKLTVLG
B6: I037E12: scFv, panel 1, binds soluble and membrane-bound B Lymphocyte Stimulator (protein, listed as Homo sapiens)
scFv: B5 scFv with Q1E, R116K, M119L, S193N

Tests used:
HIV = settings: greater activity; cited from earlier work
[1] = target: T1, murine membrane-bound B Lymphocyte Stimulator on P388 plasma membranes (Mus musculus, UniProt Q9WU72); assay: Competition ELISA on P388 plasma membranes; type: binding; settings: phage scFv; for competition of P388 plasma membrane binding by HIS-tagged B Lymphocyte Stimulator: human competitor; for recognition of P388 plasma membranes: membranes coated at 10 μg/ml
T1 construct: endogenous in cells; host or cells: P388.D1 cells, plasma membrane fraction coated on plates
T1 sequence (Q9WU72 whole entry): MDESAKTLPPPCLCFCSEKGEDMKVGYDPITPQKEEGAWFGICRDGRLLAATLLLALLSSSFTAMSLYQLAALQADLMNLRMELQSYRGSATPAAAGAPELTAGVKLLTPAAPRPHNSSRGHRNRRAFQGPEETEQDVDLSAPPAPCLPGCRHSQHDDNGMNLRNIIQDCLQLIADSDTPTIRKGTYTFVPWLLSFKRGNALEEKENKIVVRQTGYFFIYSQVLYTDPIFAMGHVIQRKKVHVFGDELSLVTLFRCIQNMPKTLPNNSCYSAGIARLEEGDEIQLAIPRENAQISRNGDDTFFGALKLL
Method: The ability of the 5 scFvs listed in Table 8 to also recognize murine membrane-bound B Lymphocyte Stimulator was determined using a competition ELISA. This assay assesses the ability of test phage scFvs to bind to the membrane-bound form of B Lymphocyte Stimulator on the murine cell line, P388, plasma membranes in the presence of different forms of competing human B Lymphocyte Stimulator. Competing B Lymphocyte Stimulator was either presented as the His-tagged form of B Lymphocyte Stimulator, or soluble B Lymphocyte Stimulator. ScFvs that recognize mouse membrane-bound B Lymphocyte Stimulator would give an ELISA signal on the P388 plasma membranes that is competed out by pre-incubation with HIS-tagged B Lymphocyte Stimulator but not by pre-incubation with soluble B Lymphocyte Stimulator.
P388.D1 cells are a mouse monocyte-macrophage like cell line. They were cultured in L15 medium supplemented with 2 mM L-glutamine, 10% CS, 10U penicillin, 100 µg/ml streptomycin (all reagents from Sigma). Cells were split 1:4 every 3-4 days to maintain a cell density of 2−8×10^5 per ml. A fresh aliquot of cells was thawed from liquid nitrogen every 6 weeks. Plasma membrane fractions were prepared as described in Example 2.
P388 plasma membranes ([…] per well) were coated at 10 μg/ml in PBS onto Falcon 96-well plates overnight at 4° C. The method is otherwise essentially as described Example 16.

[2] = target: mouse B Lymphocyte Stimulator (Mus musculus, UniProt Q9WU72); assay: Phage ELISA on immobilized mouse B Lymphocyte Stimulator; type: binding; settings: phage scFv; antigen coated at 1 μg/ml
mouse B Lymphocyte Stimulator, sequence (Q9WU72 127-309 limits assumed): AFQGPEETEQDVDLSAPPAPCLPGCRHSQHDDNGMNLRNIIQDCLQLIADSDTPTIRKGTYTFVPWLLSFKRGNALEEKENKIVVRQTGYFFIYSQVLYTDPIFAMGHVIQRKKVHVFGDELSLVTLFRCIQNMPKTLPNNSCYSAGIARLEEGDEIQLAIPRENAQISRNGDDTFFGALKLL
Method: To determine the specificity of the 48 scFvs, a phage ELISA was performed against human and mouse B Lymphocyte Stimulator, and a panel of related and unrelated human antigens: Fas ligand, TRAIL, TNFα, TNFβ, and PBS, The: Fas ligand, TRAIL, TNFα, and TNFβ antigens were obtained from R&D Systems, Minneapolis, Minn., Individual E. coli colonies containing phagemid were inoculated into 5 ml 2YTAG and incubated at 37° C. for 4 hours, shaking. M13KO7 helper phage (Pharmacia) was added to each tube to a MOI of 10 and incubated […] 1 hour, the first 30 minutes static and the final 30 minutes with gentle shaking. Cells were pelleted by centrifugation at 3,500 rpm for 10 minutes and the supernatant discarded. Cell pellets were resuspended in 5 ml 2TYAK and incubated at 30° C. overnight with shaking. The next day, the cells were pelleted by centrifugation at 3,500 rpm for 10 minutes. The phage-containing supernatant (5 ml) was carefully transferred to a fresh tube, 1 ml of 6MPBS was added, and the tube was incubated at room temperature for 1 hour to pre-block the phage prior to ELISA.
All antigens were coated at 1 μg/ml. ELISAs were performed essentially as described in Example 2. The only exception to this being the detection of phage antibody binding to mouse B Lymphocyte Stimulator where the step involving incubation with the HRP-labelled anti-mouse polymer was omitted. Binding to mouse B Lymphocyte Stimulator was detected with TMB as in Example 2.
To determine the specificity of the 33 scFvs, a phage ELISA was performed as described in Example 4 against human and mouse B Lymphocyte Stimulator, and a panel of related human antigens: TRAIL, LIGHT, TNFα, TNFβ, and an uncoated well (PBS only).

| Molecule | activity relative to HBY097 (HIV) [fold] | competition of P388 plasma membrane binding by HIS-tagged B Lymphocyte Stimulator [1] | recognition of P388 plasma membranes [1] | binding to immobilized mouse B Lymphocyte Stimulator [2] |
| --- | --- | --- | --- | --- |
| CC[C@H]1C(=O)Nc2ccc(F)cc2N1C(=O)OC(C)C [GW-420867X] | 25 |  |  |  |
| B1 |  | competed out | recognize |  |
| B2 |  | competed out | recognize |  |
| B3 |  |  |  | did not bind |
| B4 |  | competed out | recognize |  |
| B5 |  |  |  | did not bind |
| B6 |  |  |  | did not bind |
